From patent publication US20250171536A1 come the findings set out here.

Experiment [1] deals with Human CD117 (c-kit), cell-surface expressed (human) (UniProt P10721). The experiment is described as follows: cell-based or functional assay.
Experiment [2] concerns the target Cyno CD117, soluble (cynoCD117 1-520) (cynomolgus monkey). The experiment in a line: SPR Biacore 4000, captured antibody, soluble CD117 analyte, 1:1 fit. (In general: Surface plasmon resonance follows binding to a sensor surface in real time, without labels.)
Experiment [3] concerns the target Full length human CD117, soluble (HuCD117 1-524) (human) (UniProt P10721). The description is as above.
In experiment [4] the target is N-terminal domain of human CD117, soluble (HuCD117 1-308) (human) (UniProt P10721). The experiment is described as above.
Sequence of N-terminal domain of human CD117, soluble (HuCD117 1-308) (human) (P10721 26-308): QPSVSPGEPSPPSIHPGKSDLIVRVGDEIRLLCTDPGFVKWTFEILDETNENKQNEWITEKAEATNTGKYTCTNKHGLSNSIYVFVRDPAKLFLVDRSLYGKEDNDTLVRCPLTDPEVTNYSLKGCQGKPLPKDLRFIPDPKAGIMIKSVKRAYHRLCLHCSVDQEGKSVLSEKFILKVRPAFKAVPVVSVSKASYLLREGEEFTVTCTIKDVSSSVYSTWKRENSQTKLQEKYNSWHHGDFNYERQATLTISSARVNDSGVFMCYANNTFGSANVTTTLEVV

Sequence of Human CD117 (c-kit), cell-surface expressed (human) (P10721 26-976 limits assumed): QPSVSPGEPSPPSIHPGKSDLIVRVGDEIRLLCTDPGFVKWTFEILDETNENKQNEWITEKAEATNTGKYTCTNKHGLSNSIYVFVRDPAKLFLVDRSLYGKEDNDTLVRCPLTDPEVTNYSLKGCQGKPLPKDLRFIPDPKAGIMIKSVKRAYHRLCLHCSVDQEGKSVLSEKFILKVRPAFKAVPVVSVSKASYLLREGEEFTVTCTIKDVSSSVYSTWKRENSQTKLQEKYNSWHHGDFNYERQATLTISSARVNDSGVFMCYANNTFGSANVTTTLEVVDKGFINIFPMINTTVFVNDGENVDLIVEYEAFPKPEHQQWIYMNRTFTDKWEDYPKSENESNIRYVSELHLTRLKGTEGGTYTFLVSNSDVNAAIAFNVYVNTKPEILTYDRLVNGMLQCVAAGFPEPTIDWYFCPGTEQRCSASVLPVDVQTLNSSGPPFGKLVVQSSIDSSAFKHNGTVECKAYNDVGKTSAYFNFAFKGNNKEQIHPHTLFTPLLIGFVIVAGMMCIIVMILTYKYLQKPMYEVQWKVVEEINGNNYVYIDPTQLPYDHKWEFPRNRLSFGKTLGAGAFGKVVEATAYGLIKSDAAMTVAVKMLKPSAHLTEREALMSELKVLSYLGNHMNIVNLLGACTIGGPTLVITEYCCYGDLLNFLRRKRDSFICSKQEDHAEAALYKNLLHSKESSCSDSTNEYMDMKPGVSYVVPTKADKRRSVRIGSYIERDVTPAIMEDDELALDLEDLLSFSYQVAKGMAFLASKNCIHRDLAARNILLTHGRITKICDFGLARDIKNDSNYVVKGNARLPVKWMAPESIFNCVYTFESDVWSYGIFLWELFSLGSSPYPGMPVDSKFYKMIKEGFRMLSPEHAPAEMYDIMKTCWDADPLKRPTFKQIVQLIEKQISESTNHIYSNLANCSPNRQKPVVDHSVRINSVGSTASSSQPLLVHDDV
Sequence of Full length human CD117, soluble (HuCD117 1-524) (human) (P10721 26-524): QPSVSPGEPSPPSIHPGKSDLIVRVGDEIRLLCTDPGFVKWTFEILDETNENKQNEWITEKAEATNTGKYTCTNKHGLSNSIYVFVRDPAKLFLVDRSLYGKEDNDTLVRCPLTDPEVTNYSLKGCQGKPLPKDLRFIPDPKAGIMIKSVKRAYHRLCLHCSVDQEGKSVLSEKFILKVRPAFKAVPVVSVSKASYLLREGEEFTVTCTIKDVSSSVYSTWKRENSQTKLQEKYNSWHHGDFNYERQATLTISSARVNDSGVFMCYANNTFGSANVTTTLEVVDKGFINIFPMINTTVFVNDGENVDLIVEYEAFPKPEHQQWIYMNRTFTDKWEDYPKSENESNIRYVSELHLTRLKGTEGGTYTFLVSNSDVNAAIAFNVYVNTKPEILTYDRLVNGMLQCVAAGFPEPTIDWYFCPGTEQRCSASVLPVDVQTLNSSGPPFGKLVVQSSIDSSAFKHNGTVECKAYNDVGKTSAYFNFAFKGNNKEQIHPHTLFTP
Sequence of Cyno CD117, soluble (cynoCD117 1-520) (cynomolgus monkey) (P10721 other isoform, or with tags, fused parts or gaps): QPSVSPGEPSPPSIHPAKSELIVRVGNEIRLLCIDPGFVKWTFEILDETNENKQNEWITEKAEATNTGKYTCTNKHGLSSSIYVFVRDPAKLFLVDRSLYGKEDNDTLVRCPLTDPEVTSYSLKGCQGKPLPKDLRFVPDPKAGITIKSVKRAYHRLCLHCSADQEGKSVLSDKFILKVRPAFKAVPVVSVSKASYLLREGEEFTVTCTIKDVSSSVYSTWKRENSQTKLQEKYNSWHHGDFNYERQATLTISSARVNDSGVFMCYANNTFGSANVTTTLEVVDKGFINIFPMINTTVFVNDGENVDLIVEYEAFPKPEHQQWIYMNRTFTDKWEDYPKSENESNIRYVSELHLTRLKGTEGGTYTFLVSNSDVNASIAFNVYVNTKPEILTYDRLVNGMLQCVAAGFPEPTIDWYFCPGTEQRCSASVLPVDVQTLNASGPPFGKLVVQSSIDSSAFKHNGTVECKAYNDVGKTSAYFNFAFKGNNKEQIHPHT

B1: huAb249 IgA2 (antibody, from another filing, V domains shown)
VH: EVQLVQSGAEVKKPGESLKISCKGSGYRFTTSWIGWVRQMPGKGLEWMGIIYPGDSDTRYSPSFQGQVTISADKSISTAYLQWSSLKASDTAMYYCARHGLGYNGYEGAFDIWGQGTLVTVSS
VL: DIQMTQSPSSLSASVGDRVTITCRASQGIGSALAWYQQKPGKAPKLLIYDASNLETGVPSRFSGSGSGTDFTLTISSLQPEDFATYYCQQLNGYPLTFGQGTRLEIK
Usually Kd stands for the free concentration of one partner at which half of the binding sites on the other are occupied at equilibrium, for simple one-to-one binding. B1: the EC50 of trogocytosis (ADCT; DILC18 membrane uptake by neutrophils from CD117-transfected 293 cells) in experiment [1] came out at 480 pM. The molecule further yielded a Normalised uptake (B max) in %, ADCT in experiment [1] of 70.6%. Besides, the Kd in experiment [2] was found to be 100 pM; in experiment [3], 300 pM; in experiment [4] it was 80 pM.

B2: huAb249 IgG4 (antibody, from another filing, V domains shown)
VH: EVQLVQSGAEVKKPGESLKISCKGSGYRFTTSWIGWVRQMPGKGLEWMGIIYPGDSDTRYSPSFQGQVTISADKSISTAYLQWSSLKASDTAMYYCARHGLGYNGYEGAFDIWGQGTLVTVSS
VL: DIQMTQSPSSLSASVGDRVTITCRASQGIGSALAWYQQKPGKAPKLLIYDASNLETGVPSRFSGSGSGTDFTLTISSLQPEDFATYYCQQLNGYPLTFGQGTRLEIK
Regarding B2, the Kd in experiment [2] was determined as 300 pM; in experiment [3] it was 300 pM; in experiment [4], 140 pM.
